US20250215059A1

Assays:
[1] = biological target: tau aggregates in HEK293 tau biosensor cells (4R repeat domain of tau (K18) with the P301S mutation fused to CFP or YFP, seeded with clarified tau mouse brain homogenate) (UniProt P10636); experiment: Halo (JF646) imaging; intensity in aggregate over adjacent region, five aggregates
[2] = biological target: tau aggregates in HEK293 tau biosensor cells (4R repeat domain of tau (K18) with the P301S mutation fused to CFP or YFP, seeded with clarified tau mouse brain homogenate) (UniProt P10636); experiment: Halo (JF646) imaging; intensity in aggregate over adjacent region, 5 aggregates
[3] = biological target: tau aggregates in HEK293 tau biosensor cells (4R repeat domain of tau (K18) with the P301S mutation fused to CFP or YFP, seeded with clarified tau mouse brain homogenate) (UniProt P10636); experiment: Halo imaging, colocalization with cytoplasmic tau aggregates (FIG. 5D)
[4] = biological target: tau aggregates in HEK293 tau biosensor cells (4R repeat domain of tau (K18) with the P301S mutation fused to CFP or YFP, seeded with clarified tau mouse brain homogenate) (UniProt P10636); experiment: Halo imaging, colocalization with cytoplasmic tau aggregates, 5 images
[5] = biological target: tau aggregates in HEK293 tau biosensor cells (4R repeat domain of tau (K18) with the P301S mutation fused to CFP or YFP, seeded with clarified tau mouse brain homogenate) (UniProt P10636); experiment: Halo (JF646) imaging in seeded HEK293 tau biosensor cells; mean Halo intensity in aggregates over that of the compartment

tau aggregates in HEK293 tau biosensor cells (4R repeat domain of tau (K18) with the P301S mutation fused to CFP or YFP, seeded with clarified tau mouse brain homogenate), sequence (P10636 561-689 P618S): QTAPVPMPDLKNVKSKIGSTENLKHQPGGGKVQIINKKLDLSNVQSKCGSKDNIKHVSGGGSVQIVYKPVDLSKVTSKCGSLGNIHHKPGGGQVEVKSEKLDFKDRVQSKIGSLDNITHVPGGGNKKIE

Q: How did the mean enrichment in cytoplasmic tau aggregates [1] turn out when Frag_1-Halo (SRRM2 a.a. 2606-2752) was run?
A: 2.5

Q: Halo tagged 20 serine repeat was tested. Which mean enrichment in cytoplasmic tau aggregates [2] did it give?
A: 1.19

Q: 42-polyserine-halo was tested. Which percentage of cytoplasmic tau aggregates with recruitment [3] did it give?
A: > 90%

Q: What about the percentage of cytoplasmic tau aggregates positive for the construct [4] of the same substance?
A: 96%

Q: And the mean enrichment in cytoplasmic tau aggregates [2]?
A: 5.46

Q: How did the percentage of cytoplasmic tau aggregates with recruitment [3] turn out when Frag_2-Halo (SRRM2 a.a. 2458-2752) was run?
A: > 90%

Q: What about the percentage of cytoplasmic tau aggregates positive for the construct [4] of the same substance?
A: 98%

Q: What about the mean enrichment in cytoplasmic tau aggregates [1] of the same substance?
A: 4.3

Q: Which percentage of cytoplasmic tau aggregates positive for the construct [4] does the source give for “SRRM2_FL-Halo (from UniProt Q9UQ35 1-2748)” here?
A: 62%

Q: What about the mean enrichment in tau aggregates [5] of the same substance?
A: 2.57
